Results: US20260159596A1 (published 2026)
Residue numbers refer to the chain shown, from its start.

T1: recombinant DR3 (DR3-His tag) (human, UniProt Q93038 25-199)
T1 chain: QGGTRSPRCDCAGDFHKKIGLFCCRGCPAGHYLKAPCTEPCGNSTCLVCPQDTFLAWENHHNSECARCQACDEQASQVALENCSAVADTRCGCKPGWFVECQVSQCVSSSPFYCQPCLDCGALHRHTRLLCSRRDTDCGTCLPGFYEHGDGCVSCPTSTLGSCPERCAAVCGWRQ

B1: anti-DR3 2-10 monoclonal antibody (antibody, V domains shown)
VH: QVQLVQSGAEVKKPGASVKVSCKASGYTFTSYGISWVRQAPGQGLEWMGWISAYNGNTNYAQKLQGRVTMTTDTSTSTAYMELRSLRSDDTAVYYCASGPDYGMLDYWGQGTLVTVS
VL: EIVMTQSPSSLPASVGDRVTITCQASQDISNYLNWYQQKPGKAPKLLIYDASNLETGVPSRFSGSGSGTDFTFTISSPQPEDIATYYCQQYDNLPLTFGGGTKVEIK
B2: anti-DR3 6-15 monoclonal antibody (antibody, V domains shown)
VH: QVQLVQSGGGLVQPGGSLRLSCAASGFTFSSYSMNWVRQAPGKGLEWVSYISSSSSTIYYADSVKGRFTISRDNAKNSLYLQMNSLRAEDTAVYYCARWDGYCSGGSCYSGMDYWGQGTLVTVS
VL: B1 VL with E1D, V3E, P12S, R18K, F71S, P78L
B3: anti-DR3 3-18 monoclonal antibody (antibody, V domains shown)
VH: QVQLQQSGPGLVKPSETLSLTCTVSGGSISSSSYYWGWIRQPPGKGLEWIGSIYYSGSTYYNPSLKSRVTISVDTSKNQFSLKLSSVTAADTAVYYCARQVSGPLDYWGQGTLVTVS
VL: DIVMTQSPSSLSASVGDRVTITCRASQGIRNDLGWYQQKPGKAPKLLIYAASSLQSGVPSRFSGSGSGTDFTLTISSLQPEDFATYYCLQDYNYPRTFGQGTKVEIK
B4: clone 4-4 IgG2 monoclonal antibody (antibody, V domains shown)
VH: EVQLVESGGGLVKPGGSLRLSCAASGFTFSDYYMSWIRQAPGKGLEWVSYISSSSSYTNYADSVKGRFTISRDNAKNSLYLQMNSLRAEDTAVYYCASNVDTAMVGAFDIWGQGTLVTVS
VL: DIEMTQSPSSVSASVGDTVTITCRASQHISNWLAWYQQKPGQAPKFLIYTASNLQSGVPSRFSGSGYGTDFTLTISGLQPEDFATYYCQQADSFPLTFGGGTKVDIK
B5: clone 4-4 IgG1 monoclonal antibody (antibody, V domains shown)
VH: B4 VH
VL: B4 VL
B6: anti-DR3 6-2 monoclonal antibody (antibody, V domains shown)
VH: B2 VH
VL: not shown
B7: TL1A (tumor necrosis factor-like ligand 1A), His tag (ligand)
chain: LKGQEFAPSHQQVYAPLRADGDKPRAHLTVVRQTPTQHFKNQFPALHWEHELGLAFTKNRMNYTNKFLLIPESGDYFIYSQVTFRGMTSECSEIRQAGRPNKPDSITVVITKVTDSYPEPTQLLMGTKSVCEVGSNWFQPIYLGAMFSLQEGDKLMVNVSDISLVDYTKEDKTFFGAFLL

Target: T1, recombinant DR3 (DR3-His tag)
Assay: SPR

Kd [nM]	Binder
0.693	B1
82.4	B2
0.0463	B3
35.8	B4
1.56	B5
3.91	B6
426	B7
